Test [1] deals with T1, Myostatin (UniProt O14793 267-375).
T1 sequence (looked up): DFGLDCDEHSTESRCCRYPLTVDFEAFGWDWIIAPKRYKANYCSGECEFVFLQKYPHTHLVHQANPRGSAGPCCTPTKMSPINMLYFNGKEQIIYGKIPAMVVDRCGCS
As to the kind of experiment: cell-based or functional assay.

In test [2] the target is T2, Activin A (UniProt P08476 311-426).
T2 sequence (looked up): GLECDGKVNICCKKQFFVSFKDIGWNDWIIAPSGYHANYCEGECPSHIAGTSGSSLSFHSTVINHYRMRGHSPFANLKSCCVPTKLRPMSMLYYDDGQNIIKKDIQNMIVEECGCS
The experiment in a line: cell-based or functional assay.

In test [3] the target is T1, Myostatin. The experiment in a line: surface plasmon resonance.
Test [4] has as its target T2, Activin A. The experiment in a line: surface plasmon resonance.
Test [5] concerns the target T1, Myostatin. The experiment in a line: SPR (BIAcore), myostatin as analyte.

B1: ActRIIB-Fc (Fc fusion, UniProt Q13705 19-134, looked up, not shown: a dimerising Fc or GST)
chain: SGRGEAETRECIYYNANWELERTNQSGLERCEGEQDKRLHCYASWRNSSGTIELVKKGCWLDDFNCYDRQECVATEENPQVYFCCCEGNFCNERFTHLPEAGGPEVTYEPPPTAPT
In the case of B1, in test [1], the “Myostatin IC50, cell-based assay for SMAD pathway (A204 luciferase reporter)” value worked out at 0.5 nM. In addition, the “Activin A IC50, cell-based assay for SMAD pathway (A204 luciferase reporter)” value in test [2] worked out at 0.5 nM.

B2: FS315K(76,81,82)E-mFc (Fc fusion)
chain: GNCWLRQAKNGRCQVLYKTELSKEECCSTGRLSTSWTEEDVNDNTLFKWMIFNGGAPNCIPCKETCENVDCGPGKECRMNEENKPRCVCAPDCSNITWKGPVCGLDGKTYRNECALLKARCKEQPELEVQYQGRCKKTCRDVFCPGSSTCVVDQTNNAYCVTCNRICPEPASSEQYLCGNDGVTYSSACHLRKATCLLGRSIGLAYEGKCIKAKSCEDIQCTGGKKCLWDFKVGRGRCSLCDELCPDSKSDEPVCASDNATYASECAMKEAACSSGVLLEVKHSGSCNSISEDTEEEEEDEDQDYSFPISSILEW
notes: K76, K81, K82 to glutamic acid, fused with murine Fc; also called FS-EEE-mFc; not shown: murine Fc (mFc)
On to B2, for which, in test [1], the “Myostatin IC50, cell-based assay for SMAD pathway (A204 luciferase reporter)” value came out at 0.7 nM. The “Activin A IC50, cell-based assay for SMAD pathway (A204 luciferase reporter)” value in test [2] is 0.8 nM. Besides, the Kd is 7.5 pM in test [3], 6.1 pM in test [4] and 0.0148 nM in test [5].
